Key:
[1] = molecular target: HBV core protein mutant Cp-Y132A (assembly-incompetent) homodimer (hepatitis B virus (HBV)) (UniProt P03147); assay: optical tweezers force spectroscopy
[2] = molecular target: HBV core protein mutant Cp-Y132A (assembly-incompetent) homodimer (hepatitis B virus (HBV)) (UniProt P03147); assay: HAP-Alexa488 staining with photobleaching step counting

Substance “HBV core protein mutant Cp-Y132A (assembly-incompetent) homodimer (from UniProt P03147 1-149) (natural protein)” has a ω (unitless association constant for two nucleic acid-bound ligands) [1] of 500 and a stoichiometry N [2] of 2 Cp dimers.

— PMC8565845
